The target in the assay is T1, hemagglutinin (HA) of influenza A/H1N1, in viral protein preparations (Influenza A virus (H1N1); …, UniProt C3W5X2).
T1 construct: source: viral protein preparations from A/H1N1
Kind of assay: ELISA.

B1: VHH 2-C10 (VHH)
VHH: QVQLQESGGGLVQAGGSLRLSCVASGRTFSSYSMAWFRQAPGKEREFVASISWSDINGYYPDSVKGRFTISRDNAKNTVYLQMNSLKPEDTAVYYCAARLGLSNYHYHRVSDYDVWGQGTQVTVSS
notes: also called native VHH 2-C10; source: E. coli TOP10F', culture medium, purified (Ni-NTA agarose)
For the molecule B1, the binding result was “binds”.

For the origin of these results see paper PMC12101271 (Antibodies, 2025).
